Source: the supplement of paper PMC9112550, “Optimization of the antimicrobial peptide Bac7 by deep mutational scanning” (BMC Biology, 2022)

tested on: Escherichia coli TOP10; test: shrunken log2 fold change of peptide-encoding DNA abundance (4.5 h post-induction vs induction); higher = less antimicrobial activity (less host growth inhibition); details: time post-induction: 4.5 h; library: site-saturation at positions 5, 18, 19, 20
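Note: peptides expressed intracellularly from a pBAD plasmid library in pooled LB shake-flask culture, induced with 0.3% L-arabinose, DNA abundance read by NGS, three biological replicates, DESeq2 with apeglm shrinkage.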

Sequence | shrunken log2 fold change
RRIRIRPPRLPRPRPRPYLVPRP | -0.289
RRIRLRPPRLPRPRPRPCLVPRP | 0.127
RRIRNRPPRLPRPRPRPKHWPRP | 0.0916
RRIRPRPPRLPRPRPRPPFNPRP | -0.126
RRIRHRPPRLPRPRPRPYSFPRP | -0.299
RRIRRRPPRLPRPRPRPPAQPRP | 0.535
RRIRMRPPRLPRPRPRPHWQPRP | 0.161
RRIRHRPPRLPRPRPRPVYQPRP | -0.359
RRIRFRPPRLPRPRPRPENFPRP | 0.0164
RRIRTRPPRLPRPRPRPLFGPRP | -0.186
RRIRGRPPRLPRPRPRPIGRPRP | 0.551
RRIRHRPPRLPRPRPRPKASPRP | -0.0128
RRIRNRPPRLPRPRPRPKSLPRP | -0.433
RRIRRRPPRLPRPRPRPMLSPRP | 0.00534
RRIRKRPPRLPRPRPRPYNNPRP | -0.286
RRIRMRPPRLPRPRPRPDCFPRP | 0.0619
RRIRARPPRLPRPRPRPEFQPRP | 0.666
RRIRSRPPRLPRPRPRPGYTPRP | -0.129
RRIRYRPPRLPRPRPRPMVWPRP | -0.0211
RRIRMRPPRLPRPRPRPSNKPRP | 0.0232
RRIRQRPPRLPRPRPRPKGLPRP | 0.0353
RRIRDRPPRLPRPRPRPWQYPRP | -0.482
RRIRKRPPRLPRPRPRPSHKPRP | -0.262
RRIRHRPPRLPRPRPRPGISPRP | -0.315
RRIRFRPPRLPRPRPRPACEPRP | -0.0985

Sequence | shrunken log2 fold change
RRIRTRPPRLPRPRPRPDGVPRP | -0.0136
RRIRFRPPRLPRPRPRPAFGPRP | 0.21
RRIRNRPPRLPRPRPRPVFRPRP | -0.165
RRIRPRPPRLPRPRPRPRGTPRP | 0.0776
RRIRSRPPRLPRPRPRPGFWPRP | 0.654
RRIRKRPPRLPRPRPRPHAWPRP | 0.897
RRIRPRPPRLPRPRPRPNEIPRP | -0.139
RRIRDRPPRLPRPRPRPAVNPRP | 0.092
RRIRVRPPRLPRPRPRPFHIPRP | -0.527
RRIRQRPPRLPRPRPRPDSVPRP | -0.0518
RRIRFRPPRLPRPRPRPHLNPRP | -0.624
RRIRLRPPRLPRPRPRPQQSPRP | -0.047
RRIRRRPPRLPRPRPRPSSDPRP | 0.0273
RRIRVRPPRLPRPRPRPNNYPRP | -0.726
RRIRRRPPRLPRPRPRPFCVPRP | 1.05
RRIRPRPPRLPRPRPRPYTPPRP | -0.447
RRIRERPPRLPRPRPRPIHLPRP | -0.0986
RRIRDRPPRLPRPRPRPIHEPRP | -0.0852
RRIRRRPPRLPRPRPRPAIWPRP | 0.356
RRIRRRPPRLPRPRPRPEFRPRP | 0.179
RRIRGRPPRLPRPRPRPKFMPRP | 0.316
RRIRNRPPRLPRPRPRPRMKPRP | -0.0273
RRIRRRPPRLPRPRPRPYRWPRP | -0.356
RRIRSRPPRLPRPRPRPWDGPRP | -0.0512
RRIRWRPPRLPRPRPRPCMPPRP | -0.425

Sequence | shrunken log2 fold change
RRIRVRPPRLPRPRPRPTIWPRP | -0.0331
RRIRPRPPRLPRPRPRPSEVPRP | -0.079
RRIRKRPPRLPRPRPRPQGYPRP | -0.0839
RRIRCRPPRLPRPRPRPADRPRP | -0.0122
RRIRIRPPRLPRPRPRPSETPRP | -0.297
RRIRQRPPRLPRPRPRPADAPRP | 0.242
RRIRFRPPRLPRPRPRPGYWPRP | 0.0724
RRIRMRPPRLPRPRPRPMSHPRP | -0.121
RRIRTRPPRLPRPRPRPPAEPRP | 0.378
RRIRGRPPRLPRPRPRPFAPPRP | 1
RRIRKRPPRLPRPRPRPKCRPRP | 0.175
RRIRTRPPRLPRPRPRPEDFPRP | -0.00101
RRIRRRPPRLPRPRPRPNWCPRP | 0.177
RRIRRRPPRLPRPRPRPGKLPRP | 0.0788
RRIRERPPRLPRPRPRPAHAPRP | 0.117
RRIRDRPPRLPRPRPRPRWWPRP | 0.0238
RRIRSRPPRLPRPRPRPDVEPRP | 0.00664
RRIRARPPRLPRPRPRPLWSPRP | 0.263
RRIRSRPPRLPRPRPRPAEHPRP | 0.0851
RRIRDRPPRLPRPRPRPAWAPRP | 0.713
RRIRMRPPRLPRPRPRPPFVPRP | 0.267
RRIRMRPPRLPRPRPRPSQTPRP | 0.38
RRIRARPPRLPRPRPRPAQRPRP | 0.695
RRIRHRPPRLPRPRPRPAHHPRP | 0.178
RRIRTRPPRLPRPRPRPVDMPRP | -0.238

Sequence | shrunken log2 fold change
RRIRTRPPRLPRPRPRPIWKPRP | 0.0742
RRIRDRPPRLPRPRPRPDYEPRP | -0.0367
RRIRFRPPRLPRPRPRPHPVPRP | -0.141
RRIRIRPPRLPRPRPRPQFHPRP | -1.12
RRIRLRPPRLPRPRPRPSNHPRP | -1.15
RRIRSRPPRLPRPRPRPENTPRP | -0.258
RRIRVRPPRLPRPRPRPRQNPRP | 0.00342
RRIRPRPPRLPRPRPRPSNKPRP | -0.56
RRIRVRPPRLPRPRPRPCNAPRP | -0.184
RRIRFRPPRLPRPRPRPPMWPRP | 0.486
RRIRFRPPRLPRPRPRPPWRPRP | 1.68
RRIRARPPRLPRPRPRPMRHPRP | 0.38
RRIRGRPPRLPRPRPRPRCYPRP | 0.555
RRIRIRPPRLPRPRPRPPHQPRP | 0.000816
RRIRLRPPRLPRPRPRPCTVPRP | -0.0157
RRIRNRPPRLPRPRPRPPHIPRP | -0.311
RRIRHRPPRLPRPRPRPDKLPRP | -0.0246
RRIRMRPPRLPRPRPRPELLPRP | 3.52
RRIRTRPPRLPRPRPRPQDGPRP | -0.0217
RRIRRRPPRLPRPRPRPQCVPRP | 0.0427
RRIRQRPPRLPRPRPRPYMSPRP | -0.655
RRIRCRPPRLPRPRPRPEHCPRP | -0.0294
RRIRQRPPRLPRPRPRPERKPRP | 0.0453
RRIRTRPPRLPRPRPRPNPKPRP | 0.27
RRIRFRPPRLPRPRPRPETWPRP | 0.0692

Sequence | shrunken log2 fold change
RRIRIRPPRLPRPRPRPWIDPRP | 0.0218
RRIRHRPPRLPRPRPRPLGYPRP | -0.0228
RRIRWRPPRLPRPRPRPLDWPRP | 0.355
RRIRSRPPRLPRPRPRPDVKPRP | -0.0928
RRIRYRPPRLPRPRPRPAKQPRP | -0.168
RRIRERPPRLPRPRPRPENHPRP | -0.455
RRIRQRPPRLPRPRPRPMYRPRP | 0.0341
RRIRQRPPRLPRPRPRPSSMPRP | -0.201
RRIRHRPPRLPRPRPRPTRCPRP | -0.00896
RRIRFRPPRLPRPRPRPVCPPRP | 0.311
RRIRWRPPRLPRPRPRPRHYPRP | 0.00846
RRIRDRPPRLPRPRPRPQPTPRP | 0.0584
RRIRKRPPRLPRPRPRPICQPRP | -0.0166
RRIRMRPPRLPRPRPRPSGCPRP | 0.44
RRIRFRPPRLPRPRPRPVRYPRP | -0.0423
RRIRNRPPRLPRPRPRPEYNPRP | -0.678
RRIRNRPPRLPRPRPRPLTNPRP | 0.00172
RRIRPRPPRLPRPRPRPCSVPRP | 0.0152
RRIRQRPPRLPRPRPRPMQQPRP | -0.0642
RRIRARPPRLPRPRPRPPAFPRP | 1.04
RRIRCRPPRLPRPRPRPPAVPRP | 0.645
RRIRFRPPRLPRPRPRPMHHPRP | -0.449
RRIRCRPPRLPRPRPRPLATPRP | 0.146
RRIRLRPPRLPRPRPRPWQIPRP | 0.019
RRIRVRPPRLPRPRPRPRNMPRP | -0.318
